In the experiment the target is T1, lysozyme c (Lzm-S) (Canis lupus familiaris, UniProt P81709).
T1 construct: Lzm-S was purified in a manner described by Grobler et al (14); from tissue
T1 sequence (P81709 1-130): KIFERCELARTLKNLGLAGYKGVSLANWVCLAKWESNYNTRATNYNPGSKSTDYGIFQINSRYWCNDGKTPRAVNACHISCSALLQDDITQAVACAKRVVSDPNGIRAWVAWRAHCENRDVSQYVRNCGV
Kind of experiment: Effect of enzyme treatment (of Lzm-S or of the trabeculae) on Lzm-S's depressant effect in right ventricular trabecular preparation. The class given is cell-based, dog. On the procedure: In subsequent experiments, the objective was to determine whether pretreatment of Lzm-S with the proteolytic enzyme proteinase-K reduced the extent to which myocardial depression developed in the in vitro preparation (7). Proteinase-K (attached to beaded agarose; Sigma Chemical, St Louis, Mo.) was added to the pure Lzm-S preparation. The effects of proteinase-K treated and nontreated Lzm-S on isometric tension were compared between the samples. Since proteinase-K is a non-specific proteolytic enzyme, a specific competitive inhibitor of lysozyme, TAC (chitotriose) was subsequently examined to determine whether it prevented the depression in isometric tension observed in the in vitro preparation (16,17).
Regardless of the type of carbohydrate structure to which Lzm-S may bind, it is possible to deglycosylate the carbohydrate structure by means of exoglycosidases in which a specific sugar residue is removed from the terminal end of the carbohydrate tree (47). […] In group 2, the trabeculae were initially bathed in sialidase (60 μl; 5 U/ml) for two hours to remove any N-acetylneuramic acid (NeuNAc) residues, after which the effect of Lzm-S was determined (all kits from Prozyme, San Leandro, Calif.; kit GE 23; Sialidase A). […]

B1: Proteinase K: nonspecific proteolytic enzyme attached to beaded agarose (protein, UniProt P06873 106-384, looked up)
Proteinase K: AAQTNAPWGLARISSTSPGTSTYYYDESAGQGSCVYVIDTGIEASHPEFEGRAQMVKTYYYSSRDGNGHGTHCAGTVGSRTYGVAKKTQLFGVKVLDDNGSGQYSTIIAGMDFVASDKNNRNCPKGVVASLSLGGGYSSSVNSAAARLQSSGVMVAVAAGNNNADARNYSPASEPSVCTVGASDRYDRRSSFSNYGSVLDIFGPGTSILSTWIGGSTRSISGTSMATPHVAGLAAYLMTLGKTTAASACRYIADTANKGDLSNIPFGTVNLLAYNNYQA
modifications: attached to agarose beads
Consider B1, for which the “Effect of enzyme treatment on Lzm-S's depressant activity” value is reported as “reduction in depressant activity”.

(Values after US7402575B2, “Methods of treating inflammation” (priority 2003, dated 2008).)
